Measurements taken from patent US20070093415A1.
Like-named read-outs stand apart in the source and are kept apart here.

Tests used:
[1] = target: Aβ1-40 amyloid (amyloid form of the Aβ1-40 peptide); experiment: ELISA on immobilized Aβ1-40 amyloid, anti-Thio detection
[2] = target: Aβ1-40 amyloid (amyloid form of the Aβ1-40 peptide); experiment: as above; remark: listed apart in the source

Sequence of Thio (recombinant thioredoxin without the Aβ-peptide binding sequence) (P0AA25 2-109): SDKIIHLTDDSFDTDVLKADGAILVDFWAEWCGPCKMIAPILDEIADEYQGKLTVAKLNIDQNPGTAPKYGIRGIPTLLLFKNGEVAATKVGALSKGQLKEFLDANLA

Substance: Thio (recombinant thioredoxin without the Aβ-peptide binding sequence) (from UniProt P0AA25 2-109)
- concentration below which no binding was seen [1]: > 200 µM
- concentration below which no binding was seen [2]: > 100 µM
